Measured values taken from article PMC6872781 (Neoplasia (New York, N.Y.), 2019).

Target: T1, PODXL1-HA(x3)-His(x6) (human, UniProt O00592-1 23-558)
T1 sequence (looked up): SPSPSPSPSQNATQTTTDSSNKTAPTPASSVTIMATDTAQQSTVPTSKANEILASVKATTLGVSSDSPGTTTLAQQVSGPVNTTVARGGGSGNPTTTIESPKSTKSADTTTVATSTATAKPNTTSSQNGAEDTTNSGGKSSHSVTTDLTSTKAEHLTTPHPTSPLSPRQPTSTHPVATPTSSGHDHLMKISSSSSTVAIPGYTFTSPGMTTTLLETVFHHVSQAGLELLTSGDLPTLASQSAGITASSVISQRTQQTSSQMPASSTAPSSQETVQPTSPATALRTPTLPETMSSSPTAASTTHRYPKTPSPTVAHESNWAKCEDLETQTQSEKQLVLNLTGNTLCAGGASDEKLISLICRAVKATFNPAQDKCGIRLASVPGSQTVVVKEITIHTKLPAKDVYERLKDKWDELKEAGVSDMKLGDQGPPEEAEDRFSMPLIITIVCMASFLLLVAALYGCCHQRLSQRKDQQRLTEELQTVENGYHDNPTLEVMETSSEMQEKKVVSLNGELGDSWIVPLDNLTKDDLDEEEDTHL
Assay: pull-down

- binding result: binds
B1: C5aR (Complement component 5a receptor 1), C-terminal 3xFlag-6xHis-tagged (receptor, human, UniProt P21730 1-350, looked up)
chain: MDSFNYTTPDYGHYDDKDTLDLNTPVDKTSNTLRVPDILALVIFAVVFLVGVLGNALVVWVTAFEAKRTINAIWFLNLAVADFLSCLALPILFTSIVQHHHWPFGGAACSILPSLILLNMYASILLLATISADRFLLVFKPIWCQNFRGAGLAWIACAVAWGLALLLTIPSFLYRVVREEYFPPKVLCGVDYSHDKRRERAVAIVRLVLGFLWPLLTLTICYTFILLRTWSRRATRSTKTLKVVVAVVASFFIFWLPYQVTGIMMSFLEPSSPTFLLLKKLDSLCVSFAYINCCINPIIYVVAGQGFQGRLRKSLPSLLRNVLTEESVVRESKSFTRSTVDTMAQKTQAV
